What was measured:
[1] = biological target: SecV sensor (version not stated)
[2] = biological target: T1, SecV sensor, EDANS/DABCYL version (β-sec^V1 strand annealed to ES3) (not fully specified)
T1 chain: RKFEADLNVEERC

[3] = biological target: T2, SecV sensor, HiLyte-Fluor 488/QXL520 version (β-sec^V2 strand annealed to ES3) (not fully specified)
T2 chain: KFEADLNVEKC

B1: recombinant human BACE1 (beta-site APP cleaving enzyme 1), purified enzyme (ab271386, Abcam) (protein)
chain: TQHGIRLPLRSGLGGAPLGLRLPRETDEEPEEPGRRGSFVEMVDNLRGKSGQGYYVEMTVGSPPQTLNILVDTGSSNFAVGAAPHPFLHRYYQRQLSSTYRDLRKGVYVPYTQGKWEGELGTDLVSIPHGPNVTVRANIAAITESDKFFINGSNWEGILGLAYAEIARPDDSLEPFFDSLVKQTHVPNLFSLQLCGAGFPLNQSEVLASVGGSMIIGGIDHSLYTGSLWYTPIRREWYYEVIIVRVEINGQDLKMDCKEYNYDKSIVDSGTTNLRLPKKVFEAAVKSIKAASSTEKFPDGFWLGEQLVCWQAGTTPWNIFPVISLYLMGEVTNQSFRITILPQQYLRPVEDVATSQDDCYKFAISQSSTGTVMGAVIMEGFYVVFDRARKRIGFAVSACHVHDEFRTAAVEGPFVTLDMEDCGYNIPQTDESTLMT
lowest amount of BACE1 giving detectable change in sensor signal [1]: The SecV sensor showed detectable changes in signal from 8 ng and remains linear until 80 ng | upper end of linear range of sensor signal against amount of BACE1 [1]: The SecV sensor showed detectable changes in signal from 8 ng and remains linear until 80 ng | fold change in sensor response (G/R ratio), in vitro BACE1 activity assay [2]: A >3.0-fold change in sensor response was observed when EDANS and DABCYL were used as a FRET pair | fold change in sensor response (G/R ratio), in vitro BACE1 activity assay [3]: a >1.8-fold response when HyLite-488 and QXL520 were used as a FRET pair | fold change in the signal (G/R ratio), in vitro specificity assay [3]: upon addition of BACE1 the sensor showed a 1.8-fold change in the signal
